From publication PMC4320033 (Nature, 2015)

Target: N-ethylmaleimide Sensitive Factor (NSF), Chinese hamster, full-length, His-tag cleaved, reassembled hexamer (Chinese hamster, UniProt P18708 1-744)
Test: cryo-EM structure

Chain of N-ethylmaleimide Sensitive Factor (NSF), Chinese hamster, full-length, His-tag cleaved, reassembled hexamer (P18708 whole entry): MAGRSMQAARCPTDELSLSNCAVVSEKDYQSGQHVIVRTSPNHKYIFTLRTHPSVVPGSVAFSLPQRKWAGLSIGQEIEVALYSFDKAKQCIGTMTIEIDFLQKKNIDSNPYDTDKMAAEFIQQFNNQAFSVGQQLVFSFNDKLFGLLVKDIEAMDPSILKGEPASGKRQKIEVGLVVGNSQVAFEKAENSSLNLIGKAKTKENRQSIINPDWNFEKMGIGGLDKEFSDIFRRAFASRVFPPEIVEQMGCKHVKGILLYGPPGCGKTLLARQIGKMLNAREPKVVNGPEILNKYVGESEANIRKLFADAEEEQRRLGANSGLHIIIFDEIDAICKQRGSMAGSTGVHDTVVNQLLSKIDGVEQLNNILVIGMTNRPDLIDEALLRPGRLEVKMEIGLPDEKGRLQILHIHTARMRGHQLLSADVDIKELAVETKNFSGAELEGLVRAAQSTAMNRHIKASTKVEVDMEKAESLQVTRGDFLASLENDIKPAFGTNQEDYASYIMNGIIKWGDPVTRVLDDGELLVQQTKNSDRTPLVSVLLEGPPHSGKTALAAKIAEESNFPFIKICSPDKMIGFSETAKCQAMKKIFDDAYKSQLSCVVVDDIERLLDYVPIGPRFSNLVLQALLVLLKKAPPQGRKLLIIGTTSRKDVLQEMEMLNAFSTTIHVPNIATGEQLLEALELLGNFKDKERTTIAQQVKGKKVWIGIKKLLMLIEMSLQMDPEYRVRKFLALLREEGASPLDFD

B1: αSNAP (Soluble NSF Attachment Protein alpha), rat, wild type (natural protein)
chain: MDTSGKQAEAMALLAEAERKVKNSQSFFSGLFGGSSKIEEACEIYARAANMFKMAKNWSAAGNAFCQAAQLHLQLQSKHDAATCFVDAGNAFKKADPQEAINCLMRAIEIYTDMGRFTIAAKHHISIAEIYETELVDVEKAIAHYEQSADYYKGEESNSSANKCLLKVAGYAAQLEQYQKAIDIYEQVGTSAMDSPLLKYSAKDYFFKAALCHFCIDMLNAKLAVQKYEELFPAFSDSRECKLMKKLLEAHEEQNVDSYTESVKEYDSISRLDQWLTTMLLRIKKTIQGDEEDLR
  binding result: binds
